The values that follow come from patent publication US20040110131A1.

The target in the experiment is TGFβ in media conditioned by B16F10 melanoma cells (murine (produced by murine B16F10 cells)). Put plainly: cell-based or functional assay.

As for “TSR2 recombinant protein (second type 1 repeat of human TSP-1 without the DKRFK sequence, amino acids 416-473)”, the level of active TGFβ as percent of total TGFβ (MLEC PAI-1 promoter luciferase assay) (% of total TGFβ) came out at 4.8. Substance “TSR2+RFK recombinant protein (second type 1 repeat of human TSP-1 with the RFK sequence, amino acids 411-473)” had a level of active TGFβ as percent of total TGFβ (MLEC PAI-1 promoter luciferase assay) (% of total TGFβ) of 30.
